Square brackets hold non-standard residues; d marks the D form. Ends that are not written are not given here. Nle = CCCC[C@H](N)C(=O)O; Orn = NCCC[C@H](N)C(=O)O; Aib = CC(C)(N)C(=O)O
T1: human VPAC1 (Homo sapiens, UniProt P32241)
T1 construct: expressed in transfected cells
T1 sequence (P32241 31-457): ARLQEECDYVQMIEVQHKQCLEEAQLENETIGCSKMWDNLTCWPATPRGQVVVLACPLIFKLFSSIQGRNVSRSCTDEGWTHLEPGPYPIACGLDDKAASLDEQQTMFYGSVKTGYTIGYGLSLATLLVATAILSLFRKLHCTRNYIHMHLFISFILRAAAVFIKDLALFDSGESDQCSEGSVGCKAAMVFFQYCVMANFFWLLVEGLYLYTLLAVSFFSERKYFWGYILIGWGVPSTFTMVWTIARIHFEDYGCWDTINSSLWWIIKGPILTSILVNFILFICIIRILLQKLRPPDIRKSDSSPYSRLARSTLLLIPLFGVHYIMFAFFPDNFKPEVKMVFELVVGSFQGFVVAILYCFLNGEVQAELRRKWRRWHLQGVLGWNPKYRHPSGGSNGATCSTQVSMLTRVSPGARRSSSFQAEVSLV

T2: human PAC1 (Homo sapiens, UniProt P41586)
T2 construct: expressed in transfected cells; membranes)
T2 sequence (P41586 21-468): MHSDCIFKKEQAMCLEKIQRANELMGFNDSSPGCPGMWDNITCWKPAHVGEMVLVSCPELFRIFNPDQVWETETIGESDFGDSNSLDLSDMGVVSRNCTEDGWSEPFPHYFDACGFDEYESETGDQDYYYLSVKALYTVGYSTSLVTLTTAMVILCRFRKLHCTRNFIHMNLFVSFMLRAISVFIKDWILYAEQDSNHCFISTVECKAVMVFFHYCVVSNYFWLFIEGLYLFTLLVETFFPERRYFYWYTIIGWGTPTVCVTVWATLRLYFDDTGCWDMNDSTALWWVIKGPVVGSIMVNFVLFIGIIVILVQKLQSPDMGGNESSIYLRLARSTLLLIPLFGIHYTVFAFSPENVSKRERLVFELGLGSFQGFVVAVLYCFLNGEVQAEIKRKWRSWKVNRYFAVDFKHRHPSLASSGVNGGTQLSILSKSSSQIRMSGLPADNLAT

T3: human VPAC2 receptor (human, UniProt P41587 24-438)
T3 construct: whole, on cells; cAMP Alpha screen assay: whole cells
T3 sequence (looked up): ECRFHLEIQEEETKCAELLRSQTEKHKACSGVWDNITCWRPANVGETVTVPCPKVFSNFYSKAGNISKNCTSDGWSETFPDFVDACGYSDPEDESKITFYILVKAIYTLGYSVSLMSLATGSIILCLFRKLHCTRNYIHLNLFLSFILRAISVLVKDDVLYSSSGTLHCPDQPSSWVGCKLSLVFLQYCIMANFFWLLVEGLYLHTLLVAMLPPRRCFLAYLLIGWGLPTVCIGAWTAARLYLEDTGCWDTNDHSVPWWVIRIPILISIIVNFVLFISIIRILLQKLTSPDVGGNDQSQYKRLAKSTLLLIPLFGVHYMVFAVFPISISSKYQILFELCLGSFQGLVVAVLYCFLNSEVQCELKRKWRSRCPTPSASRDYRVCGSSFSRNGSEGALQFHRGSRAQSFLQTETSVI

T4: rat VPAC2 receptor (rat, UniProt P35000 23-437)
T4 sequence (looked up): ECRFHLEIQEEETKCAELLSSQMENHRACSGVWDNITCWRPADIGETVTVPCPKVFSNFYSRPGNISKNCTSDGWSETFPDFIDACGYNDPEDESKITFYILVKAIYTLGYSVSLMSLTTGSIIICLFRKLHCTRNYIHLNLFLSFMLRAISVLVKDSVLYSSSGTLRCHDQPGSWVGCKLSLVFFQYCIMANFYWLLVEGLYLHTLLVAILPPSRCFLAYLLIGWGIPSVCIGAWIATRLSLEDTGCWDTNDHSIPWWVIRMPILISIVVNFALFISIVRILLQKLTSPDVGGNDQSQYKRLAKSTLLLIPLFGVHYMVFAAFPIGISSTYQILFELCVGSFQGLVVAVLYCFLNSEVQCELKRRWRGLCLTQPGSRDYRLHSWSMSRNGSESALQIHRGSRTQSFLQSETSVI

T5: rat VPAC1 receptor (rat, UniProt P30083 31-459)
T5 sequence (looked up): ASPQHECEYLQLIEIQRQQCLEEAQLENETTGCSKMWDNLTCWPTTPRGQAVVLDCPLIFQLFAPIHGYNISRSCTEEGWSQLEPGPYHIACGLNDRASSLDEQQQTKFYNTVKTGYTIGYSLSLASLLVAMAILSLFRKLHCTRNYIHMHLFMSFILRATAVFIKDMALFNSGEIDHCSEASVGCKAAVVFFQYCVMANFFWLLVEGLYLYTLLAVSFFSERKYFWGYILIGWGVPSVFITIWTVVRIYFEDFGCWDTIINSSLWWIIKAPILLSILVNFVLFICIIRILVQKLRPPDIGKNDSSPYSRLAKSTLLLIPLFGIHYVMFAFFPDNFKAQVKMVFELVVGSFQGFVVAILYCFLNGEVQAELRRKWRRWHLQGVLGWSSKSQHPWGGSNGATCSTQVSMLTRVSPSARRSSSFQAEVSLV


What was measured:
Normal Wistar rats = experiment: Intravenous glucose tolerance test (IVGTT); type: in vivo, rat; details: 10 min between glucose and compound
Protocol: Intravenous glucose tolerance test (IVGTT): Normal Wistar rats are fasted overnight and are anesthetized prior to the experiment. A blood sampling catheter is inserted into the rats. The compound is given in the jugular vein. Blood samples are taken from the carotid artery. A blood sample is drawn immediately prior to the injection of glucose along with the compound. After the initial blood sample, glucose mixed with compound is injected intravenously (i.v.). Compound may also be injected intravenously or subcutaneously prior to the glucose challenge. A glucose challenge of 0.5 g/kg body weight is given, injecting a total of 1.5 mL vehicle with glucose and agonist per kg body weight. The peptide concentrations are varied to produce the desired dose in μg/kg. Blood samples are drawn at 2, 4, 6 and 10 minutes after giving glucose. The control group of animals receives the same vehicle along with glucose, but with no compound added. In some instances, a 30 minute post-glucose blood sample is drawn. Aprotinin is added to the blood sample (250-500 kIU/ml blood). The serum is then analyzed for glucose and insulin using standard methodologies.
The assay uses a formulated and calibrated peptide stock in PBS. Normally, this stock is a prediluted 100 μM stock. However, a more concentrated stock with approximately 1 mg agonist per mL is used. The specific concentration is always known. Variability in the maximal response is mostly due to variability in the vehicle dose.

human VPAC1 = target: T1, human VPAC1; experiment: Filter binding assay, 125I-labeled VIP tracer; details: membranes from cells transiently transfected with human VPAC1; read-out: Human receptor binding IC50 VPAC1
Protocol: (§1) In order to prepare the filter plates, the presoak solution is aspirated by vacuum filtration. The plates are flushed twice with 200 μL flush buffer. 200 μL blocking buffer is added to the filter plate. The filter plate is then incubated with 200 μL presoak solution for 1 hour at room temperature.
(§2) The assay plate is filled with 25 μL assay buffer, 25 μL membranes (2.5 μg) suspended in assay buffer, 25 μL compound (agonist) in assay buffer, and 25 μL tracer (about 40000 cpm) in assay buffer. The filled plate is incubated for 1 hour with shaking.
(§3) The transfer from assay plate to filter plate is conducted. The blocking buffer is aspirated by vacuum filtration and washed two times with flush buffer. 90 μL is transferred from the assay plate to the filter plate. The 90 μL transferred from assay plate is aspirated and washed three times with 200 μL flush buffer. The plastic support is removed. It is dried for 1 hour at 60° C. 30 μL Microscint is added. The count is performed.
(§4) Values reported are single results or the mean of two or more independent runs.

[1] = rat, in vivo, sc, 0.1 mg/kg
Protocol: Healthy Fisher 344 rats (3 animals per group) are injected with 100 μg compound/kg (compound amount based on peptide content and dissolved in PBS buffer). […] PK parameters are then calculated using a model-independent method (WinNonlin Pro, Pharsight Corp., Mountain View, Calif., USA).

human PAC1 = target: T2, human PAC1; experiment: Filter binding assay, 125I-labeled PACAP-27 tracer; details: membranes from cells transiently transfected with human PAC1; read-out: Human receptor binding IC50 PAC1
Protocol: as §1, §2, §3, §4

human VPAC2 receptor [2] = target: T3, human VPAC2 receptor; experiment: filter binding assay, human VPAC2 membranes, displacement of 125I-VIP
Protocol: as §2, §3

human VPAC2 receptor [3] = target: T3, human VPAC2 receptor; experiment: cell-based or functional assay
rat VPAC2 receptor = target: T4, rat VPAC2 receptor; experiment: cell-based or functional assay
rat VPAC1 receptor = target: T5, rat VPAC1 receptor; experiment: cell-based or functional assay

Row | Molecule | % increase AUC (insulin, 0-10 min after glucose) (Normal Wistar rats; Dose 0.5 μg/kg) | % increase AUC (insulin, 0-10 min after glucose) (Normal Wistar rats; Dose 5 μg/kg) | % increase AUC (insulin, 0-10 min after glucose) (Normal Wistar rats; Dose 15 μg/kg) | % increase AUC (insulin, 0-10 min after glucose) (Normal Wistar rats; Dose 50 μg/kg) | IC50 (human VPAC1) | AUC0-last [1] | Cl/F [1] | Vd/F [1] | IC50 (human PAC1) | IC50 (human VPAC2 receptor [2]) | EC50 for cAMP generation, Alpha screen (human VPAC2 receptor [3]) | EC50 for cAMP generation, DiscoveRx, CHO-PO cells (rat VPAC2 receptor) | EC50 for cAMP generation, DiscoveRx, CHO-PO cells (rat VPAC1 receptor)
1 | P257: cyclic PEGylated VPAC2 receptor peptide agonist (HSDAVFTENYTKL[Aib]KQ[Nle]AAKKYLNDLKKGGPSSGAPPPC; not fully specified (residue 39); ends and bridges not checked; also: cyclic, bridge type and places not given here, PEGylated, site not placed) [Agonist P257] | +14% | +114% | +158% | +230% | > 25 µM | 4396 ng·h/mL | 23 mL/h/kg | 425 mL/kg | > 3000 nM |  |  |  | 
2 | HSDAVFTENYTKLRKQ[Nle]AAKKYLNDLKQGGPSSGAPPPC (ends and bridges not checked; also: further groups not given here) [P239 (cyclic PEGylated VPAC2 receptor peptide agonist)] |  |  |  |  |  |  |  |  |  | 8.33 nM | 4.42 nM | 11.2 nM | 27.8 nM
3 | HSDAVFTENYTKLRKQ[Nle]AAKKYLNDLKKGGPSSGAPPPC (not fully specified (residue 39); ends and bridges not checked; also: further groups not given here) [P201 (cyclic PEGylated VPAC2 receptor peptide agonist)] |  |  |  |  |  |  |  |  |  | 4.11 nM | 7.82 nM | 13.2 nM | 20.8 nM
4 | HSDAVFTENYT[Orn]LR[Aib]Q[Nle]AA[Orn]KYLNDL[Orn][Orn]GGPSSGAPPPC (not fully specified (residue 39); also: cyclic, bridge type and places not given here, PEGylated, site not placed) [P376 (cyclic PEGylated VPAC2 receptor peptide agonist)] |  |  |  |  |  |  |  |  |  | 4.89 nM | 4.71 nM | 9.13 nM | 48.4 nM
5 | HSDAVFTENYT[Orn]LR[Aib]Q[Nle]AA[Orn]KYLNDL[Orn][Orn]GGPSSGAPPPC (also: cyclic by a side-chain bridge (lactam or disulfide), places not given here, PEGylated, site not given here) [P463 (cyclic PEGylated VPAC2 receptor peptide agonist)] |  |  |  |  |  |  |  |  |  | > 100 nM | 365 nM | 182 nM | 184 nM
6 | HSDAVFTENYTKL[Aib]KQ[Nle]AAKKYLNDLKQGGPSSGAPPPC (ends and bridges not checked; also: further groups not given here) [P255 (cyclic PEGylated VPAC2 receptor peptide agonist)] |  |  |  |  |  |  |  |  |  | > 100 nM | 111 nM | 51.4 nM | > 350 nM
7 | HSDAVFTENYTKL[Aib]KQ[Nle]AAKKYLNDLKKGGPSSGAPPPC (ends and bridges not checked; also: further groups not given here) [P257 (cyclic PEGylated VPAC2 receptor peptide agonist)] |  |  |  |  |  |  |  |  |  | 32.7 nM | 42.2 nM | 37.9 nM | > 1000 nM
8 | HSDAVFTENYTKLR[Aib]Q[Nle]AAKKYLNDLK[Aib]KGGPSSGAPPPC (also: further groups not given here) [P348 (cyclic PEGylated VPAC2 receptor peptide agonist)] |  |  |  |  |  |  |  |  |  | 3.54 nM | 5.82 nM | 3.26 nM | 36.9 nM
